Test results reported in patent publication US20250163180A1 (ABL BIO, published 2025).
Blank lines part the entries; values can stand above or below the binder they belong to.

Columns and labels:
[1] = target: T1, human 4-1BB-Fc protein (Sino Biological) (human, UniProt Q07011 24-186); assay: ELISA, plate coated with human 4-1BB-Fc at 0.1 ug/mL, detection with HRP-conjugated goat anti-human IgG
T1 construct: not shown: Fc part of the bought fusion protein

[2] = target: T2, human 4-1BB expressed on GloResponse NFkB-luc2/4-1BB Jurkat cells (Promega) (human, UniProt Q07011 24-255); assay: cell-based or functional assay
[3] = target: T2, human 4-1BB expressed on GloResponse …; assay: cell-based or functional assay; remark: listed apart in the source
[4] = target: T2, human 4-1BB expressed on GloResponse …; assay: cell-based or functional assay; remark: listed apart in the source

T2 sequence (Q07011 24-255 limits assumed): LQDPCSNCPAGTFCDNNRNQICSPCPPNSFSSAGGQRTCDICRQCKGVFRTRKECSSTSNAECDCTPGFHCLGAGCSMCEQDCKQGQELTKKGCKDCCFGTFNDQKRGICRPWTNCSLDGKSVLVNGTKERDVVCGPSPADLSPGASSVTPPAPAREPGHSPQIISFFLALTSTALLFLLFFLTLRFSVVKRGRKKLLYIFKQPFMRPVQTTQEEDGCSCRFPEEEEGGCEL
T1 sequence (Q07011 24-186 limits assumed): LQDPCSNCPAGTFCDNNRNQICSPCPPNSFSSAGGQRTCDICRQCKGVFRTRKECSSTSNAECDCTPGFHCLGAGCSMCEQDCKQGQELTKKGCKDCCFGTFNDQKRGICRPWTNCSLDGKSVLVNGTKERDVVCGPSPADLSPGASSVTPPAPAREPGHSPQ

B2: Urelumab (antibody, V domains shown)
VH: QVQLQQWGAGLLKPSETLSLTCAVYGGSFSGYYWSWIRQSPEKGLEWIGEINHGGYVTYNPSLESRVTISVDTSKNQFSLKLSSVTAADTAVYYCARDYGPGNYDWYFDLWGRGTLVTVSS
VL: EIVLTQSPATLSLSPGERATLSCRASQSVSSYLAWYQQKPGQAPRLLIYDASNRATGIPARFSGSGSGTDFTLTISSLEPEDFAVYYCQQRSNWPPALTFGGGTKVEIK
EC50, FcγRIIb-independent 4-1BB bioassay [2]: 0.52 nM
Fold of induction (RLU), FcγRIIb-independent 4-1BB bioassay [2]: 15.6 fold
fold difference in EC50 with against without FcγRIIb CHO-K1 cells [3]: 2.2 fold
fold difference in top RLU with against without FcγRIIb CHO-K1 cells [3]: 13.5 fold
EC50, FcγRIIb-dependent 4-1BB bioassay [4]: 0.236 nM
Fold of induction (RLU), FcγRIIb-dependent 4-1BB bioassay [4]: 196 fold

B3: 1A10 (antibody, human IgG4 S228P, lambda, V domains shown)
VH: EVQLLESGGGLVQPGGSLRLSCAASGFTFSSYDMSWVRQAPGKGLEWVSWISYSGGSIYYADSVKGRFTISRDNSKNTLYLQMNSLRAEDTAVYYCARDGQRNSMREFDYWGQGTLVTVSS
VL: QSVLTQPPSASGTPGRRVTISCSGSSSNIGNNYVTWYQQLPGTAPKLLIYADSHRPSGVPDRFSGSKSGTSASLAISGLRSEDEADYYCATWDYSLSGYVFGGGTKLTVLG
notes: also called anti-4-1BB antibody 1A10
EC50 [1]: 0.24 nM

Now from value to binder:

EC50 [1]: 0.2 nM
B1: AB41 (antibody, human IgG4 S228P, kappa, V domains shown)
VH: QVQLQQSGAEVIKPGASVKLSCKASGYTFSSYWMHWVRQAPGQGLEWIGEINPGNGHTNYNEKFKSRATLTGDTSTSTVYMELSSLRSEDTAVYYCARSFTTARAFAYWGQGTLVTVSS
VL: DIVMTQSPAFLSVTPGEKVTITCRASQTISDYLHWYQQKPDQAPKLLIKYASQSISGIPSRFSGSGSGTDFTFTISSLEAEDAATYYCQDGHSFPPTFGQGTKLEIKR
notes: also called anti-4-1BB antibody AB41

EC50 [1]: 0.18 nM
B4: 1A12 (antibody, human IgG4 S228P, lambda, V domains shown)
VH: EVQLLESGGGLVQPGGSLRLSCAASGFTFSGYDMSWVRQAPGKGLEWVSVIYPDDGNTYYADSVKGRFTISRDNSKNTLYLQMNSLRAEDAAVYYCAKHGGQKPTTKSSSAYGMDGWGQGTLVTVSS
VL: B3 VL
notes: also called anti-4-1BB antibody 1A12
